For assay [1], the target named is T1, MuSK Bait (Homo sapiens (species of MuSK not …, UniProt O15146)). Put plainly: AlphaScreen or HTRF. In general terms: Alpha assays give light when donor and acceptor beads are brought close together.
Assay [2] has as its target T1, MuSK Bait. The assay can be described thus: SPR. (In general: SPR reads the build-up and loss of mass on a sensor chip optically.)

B1: 11-3F6 (antibody, V domains shown)
VH: EVQLVESGGGLVKPGGSLRLSCAASGFTFSSYTMDWVRQAPGKGLEWVSSIGSNGDYIYYADSVRGRFTISRDNAKNSLYLQMNSLRPDDTADYYCARGQLAVAGTHFDYWGRGSLVTVSS
VL: DIQMTQSPSSLSASVGDRVTISCRASQKVNKYVNWYQQTPGKAPRLLIYAASTLQSGVPSRFSGSGSGANFTLTISGLQPEDFAIYFCQQSYSPLCTFGQGTKLEIK
Regarding B1, in assay [1], the binding result is on record as “binds”.

B2: MuSK1A (antibody, V domains shown)
VH: QVQLVQSGAEVKKPGASVKVSCKTSGYTFNNYDINWVRQAAGQGLEWMGWMNPYSGNTGYAQKFQGRVTMTRNISITTVYMELSSLRSEDTAVYYCAREVRGDTGYGGGSDYWGQGTLVTVSS
VL: SYELTQPPSVSLSPGQTATITCSGDKLDDNYVCWYQQKPGQSPVLVIYQDTMRPSGIPERFSGSNSGNIATLTISGTQAVDEADYYCQAWDGSTVVFGGGTRLTVL
Consider B2, for which the binding result in assay [1] is “binds”.

B3: 13-3B5 (antibody, V domains shown)
VH: QVQLVQSGAVVAKPGASVQVSCKTSGYTFTGQYLHWVRQAPGQGLEWIGWINPSSGVTKFAEKFEGRATMTRDTSITTAYIDLRSLRSDDTATYYCATLSLGVYYVGMVAWGQGTLVTVSS
VL: SYELTQPPSVSVSPGQTATITCSGDGLAQQHVYWFQQRPGQAPLLIIYKDIERPSGIPERFSGSSSGTTAMLTISGVQAEDEADYYCQSGDRTATSVLFGGGTKMTVL
For B3, the binding result in assay [2] is recorded as “binds”.

B4: MuSK1B (antibody, V domains shown)
VH: EVQLVEWGAGLLKPSETLSLTCAVYGGSFSGDYWWTWIRQPPGKGLEWIGEIDHTGNTNYNPSLKSRLTLSVDMSKNHFSLKLTSVTAADTALYFCARQEGLGYYDSWGQGTLVTVSS
VL: SYELTQSPSVSVSPGQTANITCSGDKLGDRYASWYQQKPAQSPVLVIYQDDRRPSGIPERFSGSNSGNTATLTISGTQGMDEADYYCQAWDGTTVFGGGTKLTVL
For the molecule B4, the binding result in assay [1] is given as “binds”.

(Values after article doi:10.1101/2025.11.18.25340499 (medRxiv, 2025).)
